# Publication PMC10899660, “Global fungal-host interactome mapping identifies host targets of candidalysin” (Nature Communications, 2024)
# Molecular target: Recombinant Cyclin H (CCNH) protein with a C-HIS tag (human) (UniProt P51946)
# Experiment: SPR; Biacore T200, 25 °C, 30 μL/min, HBS-EP running buffer; CCNH amine-coupled on a CM5 chip (1200 RU); candidalysin in 1:1 serial dilution, multicycle, association 120 s, dissociation 150 s
# Chain of Recombinant Cyclin H (CCNH) protein with a C-HIS tag (human) (P51946 whole entry): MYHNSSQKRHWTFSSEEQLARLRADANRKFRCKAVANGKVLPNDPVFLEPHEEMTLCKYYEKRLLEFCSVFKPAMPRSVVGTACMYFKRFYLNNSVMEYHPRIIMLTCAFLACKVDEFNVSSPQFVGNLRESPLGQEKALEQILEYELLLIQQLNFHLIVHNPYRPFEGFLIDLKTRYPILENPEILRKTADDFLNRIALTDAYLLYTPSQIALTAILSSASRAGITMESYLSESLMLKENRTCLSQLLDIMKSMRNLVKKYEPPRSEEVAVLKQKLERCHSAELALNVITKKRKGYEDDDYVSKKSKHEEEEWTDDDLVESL
# Chain of candidalysin (Ece1-III), synthetic peptide (Q07730 62-92 limits assumed): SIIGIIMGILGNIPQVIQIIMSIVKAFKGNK
substance,measurement,value
"candidalysin (Ece1-III), synthetic peptide",Kd,17.2 nM
same,koff,0.00171 s⁻¹
same,kon,99200 M⁻¹ s⁻¹
